Measurements as given in patent publication US20130203609A1 (BOARD OF TRUSTEES OF NORTHERN ILLINOIS UNIVERSITY, published 2013).
Where a chain is given by its changes, count along the chain named. Each block holds one binder with its values, some of them ahead of it.

Tests used:
[1] = target: T1, bovine pancreatic RNase A (bovine, UniProt P61823 27-150); experiment: ITC, 25 C; no nickel
T1 construct: mature; Bought purified protein; The residue numbers K61 and T70, and the missing residues 16-22, fit the mature numbering; It was coated on plates in the ELISAs and biotinylated for the phage selections
T1 sequence (looked up): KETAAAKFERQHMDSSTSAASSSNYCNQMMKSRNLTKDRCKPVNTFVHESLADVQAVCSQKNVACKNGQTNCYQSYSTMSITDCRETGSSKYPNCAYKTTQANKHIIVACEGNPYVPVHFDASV
Description: (§1) The binding parameters (K, ΔH°, ΔS°, and n) were determined using the single site binding model using the ITC add-in in Origin version 7 (MicroCal LLC). All titrations indicated a 1:1 interaction with observed stoichiometries equal to 1.0 (within 5%).
(§2) ITC experiments were performed using a MicroCal VP-ITC (MicroCal, LLC, Northampton, Mass.). All experiments were performed at 25° C. Proteins were dialyzed against the desired experimental buffer, which included PBS (20 mM NaPhosphate, 150 mM NaCl pH 7.4), TBS (20 mM Tris-HCl, 150 mM NaCl pH 7.4) and TBS-E (20 mM Tris, 150 mM NaCl, 1 mM EDTA, pH 7.4). For direct titration of NiCl₂ into the VHHmetal variant, concentrations were 2 mM and 200 μM for NiCl₂ and VHH, respectively. Based on the observed binding constant, this corresponds to a “cvalue” of 6.7, which is within the commonly acceptable range for the accurate determination of binding thermodynamics (Tellinghuisen, 2008; Wiseman et al. 1989). For competitive titrations, nickel was included in TBS without EDTA at concentrations ranging from 0-10 mM. Competitive VHH/RNase A titration experiments with a “c” value greater than 10 included protein concentrations ranging from 30 μM to 205 μM. Conditions included a 10-fold higher concentration of titrant (VHH). […] These experiments included using a 100-fold higher concentration of titrant (RNase A) relative to VHH. RNase A concentrations were between 150 μM and 800 μM. Extinction coefficients were determined using values determined by the methods described by Pace, et. al. (1995). […] For nickel/VHH titrations, the titrant nickel was dissolved in the appropriate dialysis buffer at a 10× concentration of the VHH. Experiments typically included 27, 10 μL injections with a 240 second delay between each injection. Dilution titrations indicated the absence of significant heats of dilution, consequently, no background dilution heat subtractions were necessary. The binding parameters (K, ΔH°, ΔS°, and n) were determined using the single site binding model using the ITC add-in in Origin version 7 (MicroCal LLC).

[2] = target: T1, bovine pancreatic RNase A; experiment: ITC, 25 C; RNase A binding with 1 mM nickel (competitive)
Description: as §1, §2

[3] = target: T1, bovine pancreatic RNase A; experiment: competitive phage ELISA without metals: VHH phage, serially diluted soluble RNase A (the varied competitor), RNase A-coated wells [panel A]
Description: (§3) Competitive Phage ELISA: Competitive phage ELISA's were performed as described by DeLano and Cunningham (DeLano and Cunningham 2004). Briefly, the concentration of phage needed to produce a 60% saturation signal was determined by running a phage ELISA of serially diluted phage stocks. This fixed amount of phage was then added to serially diluted RNase A and incubated for one hour at room temperature. The well contents of that plate were then transferred to a washed and blocked RNase A coated Maxisorp microtiter plate and incubated 15 minutes at room temperature. The plates were then treated as described above to determine the […] absorbance. The IC50 values were then determined using Origin Labs using the following relationship: […]

[4] = target: T1, bovine pancreatic RNase A; experiment: competitive phage ELISA with 1 mM metals: VHH phage, serially diluted soluble RNase A (the varied competitor), RNase A-coated wells [panel A]
Description: as §3

[5] = target: T1, bovine pancreatic RNase A; experiment: ITC, 25 C, no metal
Description: ITC experiments were performed using a MicroCal VP-ITC (MicroCal, LLC, Northampton, Mass.). All experiments were performed at 25° C. Proteins were dialyzed against the desired experimental buffer, which included PBS (20 mM NaPhosphate, 150 mM NaCl pH 7.4), TBS (20 mM Tris-HCl, 150 mM NaCl pH 7.4) and TBS-E (20 mM Tris, 150 mM NaCl, 1 mM EDTA, pH 7.4). For direct titration of NiCl₂ into the VHH-metal variant, concentrations were 2 mM and 200 μM for NiCl2 and VHH, respectively. Based on the observed binding constant, this corresponds to a “c-value” of 6.7, which is within the commonly acceptable range for the accurate determination of binding thermodynamics. For competitive titrations, nickel was included in TBS without EDTA at concentrations ranging from 0-10 mM. Competitive VHH/RNase A titration experiments with a “c” value greater than 10 included protein concentrations ranging from 30 μM to 205 μM. Conditions included a 10-fold higher concentration of titrant (VHH). […] These experiments included using a 100-fold higher concentration of titrant (RNase A) relative to VHH. RNase A concentrations were between 150 μM and 800 μM. […] The binding parameters (K, ΔH°, ΔS°, and n) were determined using the single site binding model using the ITC add-in in Origin version 7 (MicroCal LLC). […]

[6] = target: T1, bovine pancreatic RNase A; experiment: ITC, 25 C, pH 7.4; no nickel
Description: as §1, §2

[7] = target: T1, bovine pancreatic RNase A; experiment: ITC, 25 C, pH 7.4; no nickel; ITC at 25° C., no nickel
Description: as §1
(§4) ITC experiments were performed using a MicroCal VP-ITC (MicroCal, LLC, Northampton, Mass.). All experiments were performed at 25° C. Proteins were dialyzed against the desired experimental buffer, which included PBS (20 mM NaPhosphate, 150 mM NaCl pH 7.4), TBS (20 mM Tris-HCl, 150 mM NaCl pH 7.4) and TBS-E (20 mM Tris, 150 mM NaCl, 1 mM EDTA, pH 7.4). For direct titration of NiCl₂ into the VHHmetal variant, concentrations were 2 mM and 200 μM for NiCl₂ and VHH, respectively. Based on the observed binding constant, this corresponds to a “cvalue” of 6.7, which is within the commonly acceptable range for the accurate determination of binding thermodynamics (Tellinghuisen, 2008; Wiseman et al. 1989). For competitive titrations, nickel was included in TBS without EDTA at concentrations ranging from 0-10 mM. […] Extinction coefficients were determined using values determined by the methods described by Pace, et. al. (1995). […] The binding parameters (K, ΔH°, ΔS°, and n) were determined using the single site binding model using the ITC add-in in Origin version 7 (MicroCal LLC).

[8] = target: T1, bovine pancreatic RNase A; experiment: ITC, 25 C; RNase A binding with 1 µM nickel (competitive)
Description: as §1, §2

[9] = target: T1, bovine pancreatic RNase A; experiment: ITC, 25 C; RNase A binding with 10 mM nickel (competitive)
Description: as §1, §2

[10] = target: T1, bovine pancreatic RNase A; experiment: ITC, 25 C; RNase A binding with 10 µM nickel (competitive)
Description: as §1, §2

[11] = target: T1, bovine pancreatic RNase A; experiment: ITC, 25 C; RNase A binding with 100 µM nickel (competitive)
Description: as §1, §2

[12] = target: T1, bovine pancreatic RNase A; experiment: ITC, 25 C, no metal; reference is the wild-type anti-RNase A VHH
Description: as §1, §4

[13] = target: T1, bovine pancreatic RNase A; experiment: competitive phage ELISA, soluble RNase A against coated RNase A, with and without 1 mM Zn2+/Co2+/Ni2+

-TΔS° [1]: 1.9 kcal/mol | Kd [1]: 19 nM | N [1]: 1.01 | ΔG° [1]: -10.5 kcal/mol | ΔH° [1]: -12.4 kcal/mol | -TΔS° [2]: 0.9 kcal/mol | Kd [2]: 16 nM | N [2]: 0.994 | ΔG° [2]: -10.6 kcal/mol | ΔH° [2]: -10.7 kcal/mol | IC50 (read off the curve) [3]: ~0.7 nM | IC50 (read off the curve) [4]: ~1 nM
B1: wild-type anti-RNase A VHH (cAb-RN05) (VHH)
VHH: QVQLVESGGGLVQAGGSLRLSCAASGYAYTYIYMGWFRQAPGKEREGVAAMDSGGGGTLYADSVKGRFTISRDKGKNTVYLQMDSLKPEDTATYYCAAGGYELRDRTYGQWGQGTQVTVSS
notes: Camelid single-domain antibody; also called VHH-wt; wt-VHH

Kd [5]: 155 nM | -TΔS° [6]: 9 kcal/mol | N [6]: 0.96 | ΔG° [6]: -9.3 kcal/mol | ΔH° [6]: -17.8 kcal/mol | Kd [7]: 157 nM | -TΔS° [2]: 0.09 kcal/mol | Kd [2]: 5640 nM | N [2]: 1 | ΔG° [2]: -7.13 kcal/mol | ΔH° [2]: -7.2 kcal/mol | -TΔS° [8]: 8 kcal/mol | Kd [8]: 160 nM | N [8]: 0.959 | ΔG° [8]: -9.27 kcal/mol | ΔH° [8]: -17.2 kcal/mol | -TΔS° [9]: 1.3 kcal/mol | Kd [9]: 34000 nM | N [9]: 1 | ΔG° [9]: -6.07 kcal/mol | ΔH° [9]: -7.3 kcal/mol | -TΔS° [10]: 3.6 kcal/mol | Kd [10]: 219 nM | N [10]: 0.98 | ΔG° [10]: -9.1 kcal/mol | ΔH° [10]: -12.7 kcal/mol | -TΔS° [11]: -1 kcal/mol | Kd [11]: 900 nM | N [11]: 0.98 | ΔG° [11]: -8.27 kcal/mol | ΔH° [11]: -7 kcal/mol | fold decrease in binding affinity against the wild-type VHH [12]: ~8 fold | ΔΔG° against the wild-type VHH [12]: 1.2 kcal/mol | fold change in IC50 with and without 1 mM metals [13]: 1000 fold | IC50 (read off the curve) [3]: ~0.6 nM
B2: VHH-metal (metal sensitive anti-RNase A VHH) (VHH)
VHH: B1 VHH with A28P, Y29H, T30P, I32L, Y33H, E102Q, Q110H
notes: also called Metal-VHH
